Kd data for four molecules are collected here from patent publication US20220162320A1 (published 2022).

The target in experiment [1] is T1, CD3 (reagent of the affinity experiments of Example 18) (UniProt P07766 23-126).
T1 chain: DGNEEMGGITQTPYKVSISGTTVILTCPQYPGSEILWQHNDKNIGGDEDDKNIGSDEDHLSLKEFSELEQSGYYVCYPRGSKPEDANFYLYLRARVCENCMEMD
The experiment in a line: BLI; apparent KD (bivalent), avid.

The target of experiment [2] is T2, HLA-PEPTIDE target G2: HLA-A*01:01_…, recombinant soluble complex (human, enzymatically biotinylated (BirA)). The experiment in a line: BLI; apparent KD (bivalent), avid.
For experiment [3], the target named is T1, CD3 (reagent of the affinity …). The experiment in a line: BLI. On the technique in general: Biolayer interferometry detects binding as a change in optical thickness at a sensor tip.
Experiment [4] has as its target T2, HLA-PEPTIDE target G2: HLA-A*01:01_…, …. Description: BLI.
The target of experiment [5] is T1, CD3 (reagent of the affinity …). Description: BLI.
The target in experiment [6] is T2, HLA-PEPTIDE target G2: HLA-A*01:01_…, …. Description: BLI. The source holds these as a separate data set.
For experiment [7] the target is unchanged. The experiment in a line: BLI; apparent KD (bivalent), avid. This is another data set of the same source.
Experiment [8] has the same target. The experiment in a line: BLI. The source holds these as a separate data set.

B1: 2-G2(1H11)-αCD3 (bispecific antibody)
heavy: not shown
light: QAVVTQEPSLTVSPGGTVTLTCGSSTGAVTTSNYANWVQQKPGKSPRGLIGGTNKRAPGVPARFSGSLLGGKAALTISGAQPEDEADYYCALWYSNHWVFGGGTKLTVLRTVAAPSVFIFPPSDEQLKSGTASVVCLLNNFYPREAKVQWKVDNALQSGNSQESVTEQDSKDSTYSLSSTLTLSKADYEKHKVYACEVTHQGLSSPVTKSFNRGEC
Consider B1, for which the Kd in experiment [1] stood at 0.696 nM; in experiment [2], 3.41 nM; in experiment [3], 6.02 nM; in experiment [4] it was 82.2 nM.

B2: 4-G2(1H11)-αCD3 (bispecific antibody)
chain: not shown
heavy: QVQLVQSGAEVKKPGASVKVSCKASGYTFTNYYMHWVRQAPGQGLEWMGMINPSGGGTSYAQKFQGRVTMTRDTSTSTVYMELSSLRSEDTAVYYCARGNPWELRLDYWGQGTLVTVSSGGGGSGGGGSGGGGSGGGGSDIQMTQSPSSLSASVGDRVTITCQASQDISNYLNWYQQKPGKAPKLLIYAASSLQSGVPSRFSGSGSGTDFTLTISSLQPEDFATYYCQQYYSYPFTFGPGTKVDIKGGGGSGGGGSEVQLVESGGGLVQPGGSLRLSCAASGFTFSTYAMNWVRQAPGKGLEWVGRIRSKYNNYATYYADSVKGRFTISRDDSKNTLYLQMNSLRAEDTAVYYCVRHGNFGDSYVSWFAYWGQGTLVTVSSASTKGPSVFPLAPSSKSTSGGTAALGCLVKDYFPEPVTVSWNSGALTSGVHTFPAVLQSSGLYSLSSVVTVPSSSLGTQTYICNVNHKPSNTKVDKRVEPKSCDKTHTCPPCPAPELLGGPSVFLFPPKPKDTLMISRTPEVTCVVVDVSHEDPEVKFNWYVDGVEVHNAKTKPREEQYQSTYRVVSVLTVLHQDWLNGKEYKCKVSNKALPAPIEKTISKAKGQPREPQVCTLPPSREEMTKNQVSLSCAVKGFYPSDIAVEWESNGQPENNYKTTPPVLDSDGSFFLVSKLTVDKSRWQQGNVFSCSVMHEALHNRFTQKSLSLSPGK
light: B1 light
Turning to B2, the values for the Kd in experiment [5], in experiment [6] and in experiment [7] were 11.6 nM, 543 nM and 2.95 nM, respectively.

B3: 3-OKT3-G2(1H11) (antibody)
chain 1: not shown
chain 2: not shown
chain 3: MDMRVPAQLLGLLLLWLPGARCQIVLTQSPAIMSASPGEKVTMTCSASSSVSYMNWYQQKSGTSPKRWIYDTSKLASGVPAHFRGSGSGTSYSLTISGMEAEDAATYYCQQWSSNPFTFGSGTKLEINRTVAAPSVFIFPPSDEQLKSGTASVVCLLNNFYPREAKVQWKVDNALQSGNSQESVTEQDSKDSTYSLSSTLTLSKADYEKHKVYACEVTHQGLSSPVTKSFNRGEC
As to B3, the Kd in experiment [8] was determined as 23.8 nM.

B4: 3-G2(1H11)-OKT3 (bispecific antibody)
chain: not shown
heavy: not shown
light: QIVLTQSPAIMSASPGEKVTMTCSASSSVSYMNWYQQKSGTSPKRWIYDTSKLASGVPAHFRGSGSGTSYSLTISGMEAEDAATYYCQQWSSNPFTFGSGTKLEINRTVAAPSVFIFPPSDEQLKSGTASVVCLLNNFYPREAKVQWKVDNALQSGNSQESVTEQDSKDSTYSLSSTLTLSKADYEKHKVYACEVTHQGLSSPVTKSFNRGEC
B4: the Kd in experiment [8] worked out at 24.8 nM.
